B1: MNAT1 (parent)
chain: LAPIHKLEEALYEYQPLQIETYGP
B2: ZNF24 (parent)
chain: THTKEQILELVVLEQFVAILPKEL

Variants of: B1
Assay: protein stability index of a GFP-peptide fusion (GPS, HEK-293T) (PSI 1-6); higher = more stable
Conditions: c terminus: a fixed tail appended
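Note: lentivirally expressed fusions sorted by FACS into six bins by GFP to DsRed ratio, PSI derived from sequencing read proportions per bin multiplied by bin number.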

Protein stability index, by site and new letter:
Q15: H 2.08, I 1.66, K 2.26, L 1.73, M 1.94, N 1.83, R 2.03, S 2.07, T 2.2, V 1.44, Y 1.44
P16: A 2.43, C 2.06, D 2.86, E 2.67, F 1.44, G 2.35, H 2.43, I 2.79, K 1.92, L 1.88, M 1.85, N 2.94, Q 1.97, R 2.02, S 2.57, T 1.96, V 2.23, Y 1.52
L17: A 2.5, C 2.51, D 3.96, E 3.63, F 1.84, G 3.12, H 3.03, I 2.1, K 3.19, M 2.33, N 3.01, P 2.89, Q 2.19, R 3.57, S 3.45, T 2.47, V 3.02, W 1.95, Y 2.59
Q18: A 1.84, C 2.21, D 3.99, E 2.08, F 2.9, G 1.51, H 1.91, I 1.94, L 1.28, M 1.85, N 1.92, P 2.76, S 1.86, V 2.25, W 1.96, Y 1.37
I19: D 4.07, E 3.3, F 1.85, G 2.85, H 2.85, K 2.99, L 2.89, M 2.37, N 3.25, P 2.79, Q 3.62, R 3.1, S 2.73, T 2.61, V 2.63, W 2.32, Y 1.92
E20: A 1.32, D 1.95, G 1.98, H 1.6, I 2.71, K 3.27, M 1.47, P 2.59, Q 2.19, R 1.79, S 1.71, T 1.28, W 2.88, Y 2.74
T21: A 2.6, C 3.14, D 2.31, E 1.8, F 5.16, G 1.98, H 1.62, K 2.5, L 3.23, M 3.53, N 2.5, P 2.46, Q 1.57, R 2.09, S 2.23, W 3.09, Y 2.38
Y22: A 2.18, C 1.96, E 3.19, F 3.02, H 1.91, I 1.81, K 2.8, L 2.63, M 2.01, N 2.74, P 2.88, Q 2.66, R 1.73, S 2.4, T 2.64, V 1.76, W 2.1
G23: A 2.16, C 1.44, D 1.3, E 1.86, F 1.92, H 2.67, I 2.07, K 2.86, L 2.56, M 2.17, N 1.85, P 1.67, Q 2.02, R 1.15, S 2.1, T 1.3, V 2.79, W 1.14, Y 1.87
P24: A 2.14, C 2.67, D 1.95, G 1.82, H 1.58, I 2.04, K 2.29, L 3.08, M 1.25, N 2.52, Q 1.75, S 2.35, T 1.87, W 1.99, Y 2.37

Variants of: B2
Assay: as above
Conditions: c terminus: a fixed tail appended

Protein stability index of substitutions, site by site:
V17: I 2.94, M 2.31, G 1.52, R 1.66, D 1.71, A 3.14, P 1.94, H 2.25, C 2.49
Q15: V 3.51, R 2.81, K 1.75, E 2.55, P 2.4, H 2.53, F 2.79, C 1.66, L 2.44
L24: C 2.88, R 2.47, T 2.7, V 4.07, H 2.66, E 1.7
L13: T 2.77, S 1.55, M 2.18, W 2.67, A 1.51, R 1.85, C 1.98, Q 2.34, N 1.73
V12: S 2.03, M 2.51, N 2.14, K 2.07, G 1.98, L 2.12, Q 2.05
E5: M 3.25, R 3.65, F 2.12, Y 2.01, L 2.78, C 2.31, W 2.85, N 3.01, G 2.7, H 2.42
L20: R 2.61, M 1.95, Y 1.46, V 2.19, C 2.24
L10: T 2.03, R 1.72, G 1.7, M 2.69, H 1.65
H2: G 2.96, A 3.12, V 2.41, I 3.4, E 2.74, L 4.38
F16: I 1.43, G 1.69, N 2.21, W 2.54, K 1.95, H 2.13, Q 2.01, M 2.5
V11: E 1.86, A 2.1, Q 2.05, N 2.15, T 2, F 3.28, I 3.03, R 1.76, D 2.36, P 2.67, H 2.18, G 2.05
L8: E 2.32, C 2.75, M 2.41, S 1.57, A 2.28, Y 2.66, K 1.84
Q6: V 3.24, C 2.11, K 3.65, D 1.55, W 2.41, A 2.33, I 3.01, L 3.47, R 2.56, Y 4.9
T3: N 3.1, W 3.42, L 3.11, S 3.88
T1: L 1.56, M 1.92, P 3.09, F 3.59, I 2.73, W 2.72, C 3.51
I7: V 1.29, W 2.51, N 1.65, Y 3.29, C 1.59, F 2.54, Q 1.89, H 2.04, T 2.11
P21: Q 2.66, V 2.28, E 2.23, Y 3.02, D 4.16, A 3.78, M 3.76, H 3.6, K 3.31
A18: W 2.51, N 2.67, E 2.1, C 3.45, Y 2.59, G 2.88, H 3.02, T 2.2
K4: R 1.59, Y 2.51, L 4.05, T 1.83, E 1.58, Q 2.59
E23: P 3.16, Q 2.54, M 3.72, N 2.97, W 3.51, C 3.17, D 2.29, V 2.76, Y 3.09
E14: R 2.95, Q 2.97, D 2.24, G 3.21, V 1.16
K22: S 3.45, Y 2.9, A 2.63
I19: L 2.38, M 3.34, K 2.14, H 2.32, E 2.37, V 4.1
E9: K 2.77, S 3.48

From the supplement of paper PMC10567573
